The text below walks through data of patent publication US20120177636A1.

Experiment [1] addresses CA215 (human). Briefly: two-step ELISA on OC-3-VGH cancer cells, goat anti-mouse IgG-ALP; OD over that of normal mouse IgG at the same concentration. A general note: In an ELISA, binding on a coated surface is turned into a signal by an enzyme label.
The target in experiment [2] is CA215 on NaIO4-treated OC-3-VGH cancer cells (human). Briefly: direct binding EIA on OC-3-VGH cell-coated wells, with NaIO4 treatment.
Experiment [3] deals with CA215 (human). The experiment in a line: sandwich EIA: antibody coated at 5 µg/ml, OC-3-VGH shed medium, HRP-labeled RP215 as detector; with 10 µg/ml human IgG.
For experiment [4], the target named is CA215 (human). The experiment in a line: sandwich EIA: antibody coated at 5 µg/ml, OC-3-VGH shed medium, HRP-labeled RP215 as detector; no human IgG.
In experiment [5] the target is CA215 (human). Briefly: direct binding EIA on OC-3-VGH cell-coated wells, without NaIO4 treatment.
Experiment [6] concerns the target CA215 (human). The experiment in a line: sandwich EIA: antibody coated at 5 µg/ml, OC-3-VGH shed medium, HRP-labeled RP215 as detector; with 10 µg/ml human IgG; relative to RP215.
Experiment [7] addresses CA215 (human). The experiment in a line: sandwich EIA: antibody coated at 5 µg/ml, OC-3-VGH shed medium, HRP-labeled RP215 as detector; no human IgG; relative to RP215.
The target of experiment [8] is RP215 monoclonal antibody. Briefly: ELISA, RP215 coated in wells, goat antibody as detector; row normalised to RP215.
RP215 monoclonal antibody, sequence (VH, as listed by the source, chain 1 of 2): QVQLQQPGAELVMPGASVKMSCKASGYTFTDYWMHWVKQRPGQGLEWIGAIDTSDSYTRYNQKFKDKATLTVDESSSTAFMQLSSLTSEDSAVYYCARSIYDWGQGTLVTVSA
RP215 monoclonal antibody, sequence (VL, as listed by the source, chain 2 of 2): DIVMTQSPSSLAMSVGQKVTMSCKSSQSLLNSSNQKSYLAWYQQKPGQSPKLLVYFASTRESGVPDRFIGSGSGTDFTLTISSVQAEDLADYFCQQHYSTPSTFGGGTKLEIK
Experiment [9] concerns the target humanized RP215. The experiment in a line: ELISA, hRP215 coated in wells, goat antibody as detector; row normalised to RP215.
Experiment [10] has as its target human IgG (human). The experiment in a line: ELISA, human IgG coated in wells, goat antibody as detector; row normalised to RP215.
Experiment [11] has as its target chimeric RP215 mAb. The experiment in a line: ELISA, chRP215 coated in wells, goat antibody as detector; row normalised to RP215.

chimeric RP215 mAb, sequence (VH, as listed by the source, chain 1 of 2): as the sequence (VH, as listed by the source, chain 1 of 2) above
chimeric RP215 mAb, sequence (VL, as listed by the source, chain 2 of 2): as the sequence (VL, as listed by the source, chain 2 of 2) above

Take RP215 monoclonal antibody: the ODs405/ODn405 in experiment [1] is 11.6. Besides, the Optical Density at 450 nm in [2] turned out to be 0.797; in [5] it was 2.15. The percent maximum binding stood at 37% in [2] and 100% in [5]. Also, the Relative Signal Intensity in Sandwich EIA in experiment [3] and in experiment [4] was 100% throughout.
Regarding chimeric RP215 mAb (antibody), the figures for the Relative Signal Intensity in Sandwich EIA in experiment [6] and in experiment [7] were 15.4% and 14.5%, respectively.
On to goat anti-mouse IgG (antibody), for which the Relative Intensity is 100% in experiment [8], 5% in experiment [9], 3% in experiment [10] and 7% in experiment [11].
